Assay [1] has as its target T1, MSLN-Avi ectodomain (human ectodomain of MSLN) (human, UniProt Q13421 296-598, limits assumed).
T1 construct: extracellular domain; Expressed in 293-F cells as the fusion sFlag-His-Scn-tev-MSLN-Avi and cleaved with TEV protease; It was the analyte in SPR, and I take it to be the MSLN in the Fab:MSLN crystal complex as well; not shown: Avi tag
The assay can be described thus: written beside the structure of the 1A12 Fab on MSLN; no assay named on the sheet (the value is the rounded SPR fit of FIG. 7A). Here is the method: (§1) Surface plasmon resonance (SPR) experiments were performed at 25° C. on a BIACORE™ T100 instrument (GE Healthcare) with a Series S CM4 chip using a running buffer of 10 mM HEPES, pH 7.4, 150 mM NaCl, 3 mM EDTA, 0.05% surfactant P20 with 0.1 mg/mL bovine serum albumin. Goat anti-human Fc antibody (Jackson Labs: 109005098) was amine coupled to the CM4 chip (˜2800 RUs) and each antibody was then captured on a single flow cell of immobilized goat anti-human Fc. The purified MSLN-Avi (discussed above) was run as a concentration series at 50 uL/min over the captured antibodies and the goat anti-human Fc reference surface. CM4 chip was regenerated with 10 mM glycine, pH1.5 for 30 sec at 50 uL/min. Data was double referenced and analyzed in BiaEval 2.0.4.

In assay [2] the target is T1, MSLN-Avi ectodomain (human ectodomain …). The experiment in a line: SPR, Biacore T100, 25 C; antibody captured on goat anti-human Fc (57.1 +/- 0.8 RUs), MSLN-Avi as analyte 2.0-1000 nM in duplicate, 1:1 fit. As to the method: as §1
On the technique in general: Surface plasmon resonance follows binding to a sensor surface in real time, without labels.

T1 sequence (Q13421 other isoform, or with tags, fused parts or gaps limits assumed): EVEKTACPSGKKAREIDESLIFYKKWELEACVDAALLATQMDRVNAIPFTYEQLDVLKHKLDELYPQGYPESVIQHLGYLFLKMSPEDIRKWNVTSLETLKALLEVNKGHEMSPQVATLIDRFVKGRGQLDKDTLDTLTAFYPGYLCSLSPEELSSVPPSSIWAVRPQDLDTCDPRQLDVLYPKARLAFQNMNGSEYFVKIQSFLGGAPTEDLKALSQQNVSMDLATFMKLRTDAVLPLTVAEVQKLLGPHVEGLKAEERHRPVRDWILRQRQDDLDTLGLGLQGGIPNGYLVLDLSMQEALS

B1: 1A12 anti-MSLN antibody (antibody, human IgG1, V domains shown)
VH: EVQLLESGGGLVQPGGSLRLSCAASGLTFRSYAMTWVRQAPGKGLEWVSGISVSGGITYYADSVKGRFTISRDNSKNTLYLQMNSLRAEDTAVYYCAKRGAAVGSFDYWGQGTLVTVSS
VL: DIQMTQSPSSLSASVGDRVTITCRSSQGIGSWLAWYQQKPEKAPQSLIYAASSLQSGVPSRFSGSGSGTDFTLTISNLQPEDFATYYCQQYNSYPLTFGGGTKVEIK
notes: also called 1A12b; anti-MSLN 1A12 antibody
What is called Kd is the concentration at which binding is half-saturated. A low value points to tighter binding. Broadly, the koff is a measure of how fast the partners let go of each other. Higher therefore signals fast dissociation. Usually kon stands for the rate constant with which the complex forms. A lower kon goes with slow association. B1: the Kd in assay [1] was determined as 64 nM. In addition, in assay [2], the Kd turned out to be 64.4 nM, the koff was found to be 0.00458 s⁻¹ and the kon stood at 71100 M⁻¹ s⁻¹.

Values taken from patent US20210309755A1 (FRED HUTCHINSON CANCER CENTER, published 2021).
